Experimental data from the supplement of paper PMC9112550, “Optimization of the antimicrobial peptide Bac7 by deep mutational scanning” (BMC Biology, 2022).

Tested on: Escherichia coli TOP10
Experiment: shrunken log2 fold change of peptide-encoding DNA abundance (4.5 h post-induction vs induction); higher = less antimicrobial activity (less host growth inhibition)
Conditions: time post-induction: 4.5 h; library: site-saturation at positions 5, 18, 19, 20
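Further: peptides expressed intracellularly from a pBAD plasmid library in pooled LB shake-flask culture, induced with 0.3% L-arabinose, DNA abundance read by NGS, three biological replicates, DESeq2 with apeglm shrinkage.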

Sequence | shrunken log2 fold change
RRIRERPPRLPRPRPRPWECPRP | -0.0135
RRIRYRPPRLPRPRPRPCSDPRP | -0.187
RRIRPRPPRLPRPRPRPWGHPRP | -0.0804
RRIRGRPPRLPRPRPRPFQVPRP | 0.0301
RRIRTRPPRLPRPRPRPHQGPRP | -0.0325
RRIRLRPPRLPRPRPRPDTMPRP | -0.286
RRIRLRPPRLPRPRPRPSEVPRP | -0.396
RRIRVRPPRLPRPRPRPCPHPRP | -0.0391
RRIRARPPRLPRPRPRPHQDPRP | -0.126
RRIRWRPPRLPRPRPRPYWHPRP | -0.377
RRIRNRPPRLPRPRPRPFQLPRP | -0.228
RRIRARPPRLPRPRPRPVGCPRP | 0.768
RRIRHRPPRLPRPRPRPHQHPRP | -0.526
RRIRQRPPRLPRPRPRPKCGPRP | 0.354
RRIRNRPPRLPRPRPRPVFLPRP | -0.215
RRIRMRPPRLPRPRPRPPHGPRP | 1.06
RRIRSRPPRLPRPRPRPHSGPRP | 0.0329
RRIRYRPPRLPRPRPRPNDPPRP | -0.549
RRIRWRPPRLPRPRPRPCYAPRP | -0.345
RRIRNRPPRLPRPRPRPLSDPRP | -0.0613
RRIRQRPPRLPRPRPRPWQQPRP | -0.333
RRIRRRPPRLPRPRPRPWQAPRP | 0.0707
RRIRQRPPRLPRPRPRPFFNPRP | -0.438
RRIRIRPPRLPRPRPRPGTNPRP | -0.314
RRIRIRPPRLPRPRPRPQAMPRP | -0.0316

Sequence | shrunken log2 fold change
RRIRGRPPRLPRPRPRPQVKPRP | 0.564
RRIRRRPPRLPRPRPRPYTEPRP | -0.452
RRIRPRPPRLPRPRPRPRMIPRP | 0.0799
RRIRCRPPRLPRPRPRPQEEPRP | -0.0124
RRIRTRPPRLPRPRPRPTQSPRP | 0.311
RRIRWRPPRLPRPRPRPVFNPRP | -0.259
RRIRGRPPRLPRPRPRPLLYPRP | 0.473
RRIRVRPPRLPRPRPRPDEKPRP | 0.11
RRIRYRPPRLPRPRPRPRQSPRP | -0.0113
RRIRRRPPRLPRPRPRPIVNPRP | -0.205
RRIRDRPPRLPRPRPRPNDAPRP | 0.0621
RRIRTRPPRLPRPRPRPGEEPRP | -0.00249
RRIRERPPRLPRPRPRPPADPRP | 0.152
RRIRIRPPRLPRPRPRPIDAPRP | -0.215
RRIRLRPPRLPRPRPRPGKYPRP | -0.282
RRIRLRPPRLPRPRPRPPQFPRP | -0.165
RRIRQRPPRLPRPRPRPMYNPRP | -0.545
RRIRYRPPRLPRPRPRPECIPRP | -0.00318
RRIRERPPRLPRPRPRPELQPRP | -0.0137
RRIRFRPPRLPRPRPRPCILPRP | -0.0567
RRIRPRPPRLPRPRPRPLPDPRP | 0.179
RRIRVRPPRLPRPRPRPMVAPRP | -0.148
RRIRDRPPRLPRPRPRPHYTPRP | -0.73
RRIRNRPPRLPRPRPRPDIEPRP | 0.0309
RRIRSRPPRLPRPRPRPSHLPRP | -0.265

Sequence | shrunken log2 fold change
RRIRSRPPRLPRPRPRPAQNPRP | 0.241
RRIRSRPPRLPRPRPRPHMIPRP | -0.961
RRIRSRPPRLPRPRPRPDRWPRP | 0.0855
RRIRKRPPRLPRPRPRPGNHPRP | 0.0875
RRIRHRPPRLPRPRPRPPLTPRP | 0.162
RRIRCRPPRLPRPRPRPIVTPRP | 0.0598
RRIRSRPPRLPRPRPRPDVSPRP | -0.0357
RRIRYRPPRLPRPRPRPVCMPRP | -0.314
RRIRDRPPRLPRPRPRPPYFPRP | -0.0365
RRIRRRPPRLPRPRPRPGLTPRP | 0.508
RRIRTRPPRLPRPRPRPRTNPRP | -0.192
RRIRGRPPRLPRPRPRPPLRPRP | 0.796
RRIRKRPPRLPRPRPRPYFHPRP | -0.225
RRIRTRPPRLPRPRPRPAKNPRP | -0.0492
RRIRYRPPRLPRPRPRPMDAPRP | -0.00112
RRIRFRPPRLPRPRPRPFLHPRP | -0.329
RRIRDRPPRLPRPRPRPQSRPRP | -0.123
RRIRQRPPRLPRPRPRPNELPRP | -0.24
RRIRIRPPRLPRPRPRPVGMPRP | 0.0752
RRIRGRPPRLPRPRPRPAGFPRP | 0.775
RRIRDRPPRLPRPRPRPFEKPRP | 0.00649
RRIRGRPPRLPRPRPRPILWPRP | 0.376
RRIRIRPPRLPRPRPRPVRFPRP | -0.16
RRIRMRPPRLPRPRPRPVQVPRP | -0.00884
RRIRHRPPRLPRPRPRPAVNPRP | -0.0508

Sequence | shrunken log2 fold change
RRIRLRPPRLPRPRPRPASAPRP | 0.202
RRIRLRPPRLPRPRPRPEWIPRP | 0.00477
RRIRPRPPRLPRPRPRPEHSPRP | -0.0353
RRIRFRPPRLPRPRPRPCIDPRP | 0.255
RRIRGRPPRLPRPRPRPPPCPRP | 1.16
RRIRMRPPRLPRPRPRPQQIPRP | 0.0607
RRIRSRPPRLPRPRPRPHIKPRP | -0.255
RRIRNRPPRLPRPRPRPMNAPRP | -0.281
RRIRKRPPRLPRPRPRPNDRPRP | -0.0503
RRIRWRPPRLPRPRPRPMHVPRP | 0.0255
RRIRIRPPRLPRPRPRPHPDPRP | -0.45
RRIRARPPRLPRPRPRPATGPRP | 0.318
RRIRTRPPRLPRPRPRPIDEPRP | 0.0904
RRIRIRPPRLPRPRPRPPCWPRP | 0.836
RRIRERPPRLPRPRPRPKMAPRP | 2.39
RRIRTRPPRLPRPRPRPLLKPRP | -0.336
RRIRARPPRLPRPRPRPSAQPRP | 0.96
RRIRHRPPRLPRPRPRPMKKPRP | -0.0202
RRIRSRPPRLPRPRPRPMEIPRP | 0.014
RRIRHRPPRLPRPRPRPIMPPRP | -0.74
RRIRRRPPRLPRPRPRPDAHPRP | -0.00208
RRIRRRPPRLPRPRPRPDKFPRP | 0.0835
RRIRKRPPRLPRPRPRPTNGPRP | 0.0599
RRIRQRPPRLPRPRPRPQMCPRP | 0.109
RRIRRRPPRLPRPRPRPHPSPRP | -0.0167

Sequence | shrunken log2 fold change
RRIRTRPPRLPRPRPRPWPCPRP | -0.0128
RRIRYRPPRLPRPRPRPREAPRP | 0.469
RRIRFRPPRLPRPRPRPGPWPRP | 0.216
RRIRRRPPRLPRPRPRPHPVPRP | 0.175
RRIRTRPPRLPRPRPRPPVSPRP | 0.147
RRIRLRPPRLPRPRPRPHSDPRP | -0.175
RRIRIRPPRLPRPRPRPTLKPRP | -0.132
RRIRFRPPRLPRPRPRPVYEPRP | -0.66
RRIRTRPPRLPRPRPRPCQKPRP | 0.0124
RRIRPRPPRLPRPRPRPNSPPRP | -0.255
RRIRGRPPRLPRPRPRPRPFPRP | 0.889
RRIRKRPPRLPRPRPRPCPVPRP | -0.106
RRIRERPPRLPRPRPRPPRTPRP | 0.316
RRIRYRPPRLPRPRPRPGYDPRP | -0.205
RRIRARPPRLPRPRPRPLAWPRP | 0.721
RRIRPRPPRLPRPRPRPYEEPRP | -0.214
RRIRERPPRLPRPRPRPVCYPRP | -0.266
RRIRYRPPRLPRPRPRPYMHPRP | 0.0498
RRIRVRPPRLPRPRPRPLGRPRP | 0.267
RRIRTRPPRLPRPRPRPSMYPRP | -0.39
RRIRTRPPRLPRPRPRPTGYPRP | 0.000642
RRIRNRPPRLPRPRPRPLSCPRP | -0.238
RRIRMRPPRLPRPRPRPLHSPRP | 0.0835
RRIRHRPPRLPRPRPRPTKNPRP | -0.312
RRIRPRPPRLPRPRPRPASLPRP | 0.187
